Molecular target: T1, recombinant human TSLP (R&D Systems) (human, UniProt Q969D9 29-159)
T1 construct: also called hTSLP; human thymic stromal lymphopoietin
Assay: SPR (Biacore), biotinylated recombinant human TSLP on SA-chip, Fab as analyte
Description: A respective amount of biotinylated human serum albumin (HSA) was immobilized on the reference flow cell. […] The Fabs were applied in concentration series of 16-500 nM at a flow rate of 20 μl/min. Association phase was set to 60 s and dissociation phase to 120 s.

binding result | Binder
binds | MOR04609 Fab (Fab, V domains shown, carries two C-terminal tags (FLAG and 6xHis)) VH: QVQLQQSGPGLVKPSQTLSLTCAISGDSVSSNSAAWGWIRQSPGRGLEWLGRIYYRSKWLNDYAVSVKSRITINPDTSKNQFSLQLNSVTPEDTAVYYCARDGGWYIDVWGQGTLVTVSS VL: DIELTQPPSVSVAPGQTARISCSGDNLGSYYANWYQQKPGQAPVLVIYEDKRPSGIPERFSGSNSGNTATLTISGTQAEDEADYYCQSFDSYHSDYVFGGGTKLTVLG

Molecular target: T1, recombinant human TSLP (R&D Systems)
Assay: BioVeris electrochemiluminescence screening, Fab in E. coli lysate on biotinylated TSLP coupled to streptavidin beads
Description: BEL extracts were diluted in assay buffer (PBS/0.05% Tween20/0.5% BSA) for use in BioVeris screening.

binding result | Binder
binds | MOR05024 Fab (Fab, V domains shown) VH: QVQLVQSGAEVKKPGSSVKVSCKASGGTFSSYAISWVRQAPGQGLEWMGNIYPIFGYANYAQKFQGRVTITADESTSTAYMELSSLRSEDTAVYYCARYGQYGQHFSHGGMDVWGQGTLVTVSS VL: DIQMTQSPSSLSASVGDRVTITCRASQDISISLTWYQQKPGKAPKLLIYGAFSLQSGVPSRFSGSGSGTDFTLTISSLQPEDFATYYCQQFWFEPVTFGQGTKVEIKR
binds | MOR05026 Fab (Fab, V domains shown) VH: QVQLVQSGAEVKKPGSSVKVSCKASGGTFSSYAISWVRQAPGQGLEWMGNIYPIFGYANYAQKFQGRVTITADESTSTAYMELSSLRSEDTAVYYCARYGQYGQHFSHGGMDVWGQGTLVTVSS VL: DIQMTQSPSSLSASVGDRVTITCRASQDISISLTWYQQKPGKAPKLLIYGAFSLQSGVPSRFSGSGSGTDFTLTISSLQPEDFATYYCQQFWSEPVTFGQGTKVEIKR
binds | MOR05025 Fab (Fab, V domains shown) VH: QVQLVQSGAEVKKPGSSVKVSCKASGGTFSSYAISWVRQAPGQGLEWMGNIYPIFGYANYAQKFQGRVTITADESTSTAYMELSSLRSEDTAVYYCARYGQYGQHFSHGGMDVWGQGTLVTVSS VL: DIQMTQSPSSLSASVGDRVTITCRASQDISISLTWYQQKPGKAPKLLIYGAFSLQSGVPSRFSGSGSGTDFTLTISSLQPEDFATYYCQQFWFHPVTFGQGTKVEIKR
binds | MOR05023 Fab (Fab, V domains shown) VH: QVQLVQSGAEVKKPGSSVKVSCKASGGTFSSYAISWVRQAPGQGLEWMGNIYPIFGYANYAQKFQGRVTITADESTSTAYMELSSLRSEDTAVYYCARYGQYGQHFSHGGMDVWGQGTLVTVSS VL: DIQMTQSPSSLSASVGDRVTITCRASQDISISLTWYQQKPGKAPKLLIYGAFSLQSGVPSRFSGSGSGTDFTLTISSLQPEDFATYYCQQFYFHSPTFGQGTKVEIKR
binds | MOR05027 Fab (Fab, V domains shown) VH: QVQLVQSGAEVKKPGSSVKVSCKASGGTFSSYAISWVRQAPGQGLEWMGNIYPIFGYANYAQKFQGRVTITADESTSTAYMELSSLRSEDTAVYYCARYGQYGQHFSHGGMDVWGQGTLVTVSS VL: DIQMTQSPSSLSASVGDRVTITCRASQDISISLTWYQQKPGKAPKLLIYGAFSLQSGVPSRFSGSGSGTDFTLTISSLQPEDFATYYCQQFWTEPVTFGQGTKVEIKR
binds | MOR05016 Fab (Fab, V domains shown) VH: QVQLVESGGGLVQPGGSLRLSCAASGFTFSSYYMSWVRQAPGKGLEWVSNISYDSSDTYYADSVKGRFTISRDNSKNTLYLQMNSLRAEDTAVYYCARQQYFDHIDIWGQGTLVTVSS VL: DIELTQPPSVSVAPGQTARISCGGDSLGGKYVYWYQQKPGQAPVLVIYGDSKRPSGIPERFSGSNSGNTATLTISGTQAEDEADYYCQSYDLQSLNIVFGGGTKLTVLG
binds | MOR05017 Fab (Fab, V domains shown) VH: QVQLVESGGGLVQPGGSLRLSCAASGFTFSSYYMSWVRQAPGKGLEWVSNISYDSSDTYYADSVKGRFTISRDNSKNTLYLQMNSLRAEDTAVYYCARQQYFDHIDIWGQGTLVTVSS VL: DIELTQPPSVSVAPGQTARISCGGDSLGGKYVYWYQQKPGQAPVLVIYGDSKRPSGIPERFSGSNSGNTATLTISGTQAEDEADYYCQSYDLKSLNVVFGGGTKLTVLG
binds | MOR05018 Fab (Fab, V domains shown) VH: QVQLVESGGGLVQPGGSLRLSCAASGFTFSSYYMSWVRQAPGKGLEWVSNISYDSSDTYYADSVKGRFTISRDNSKNTLYLQMNSLRAEDTAVYYCARQQYFDHIDIWGQGTLVTVSS VL: DIELTQPPSVSVAPGQTARISCGGDSLGGKYVYWYQQKPGQAPVLVIYGDSKRPSGIPERFSGSNSGNTATLTISGTQAEDEADYYCQSYDLGSLNLVFGGGTKLTVLG
binds | MOR05020 Fab (Fab, V domains shown) VH: QVQLVESGGGLVQPGGSLRLSCAASGFTFSNHALSWVRQAPGKGLEWVSGIQYDGSNTGYADSVKGRFTISRDNSKNTLYLQMNSLRAEDTAVYYCARYYGYSYMDYWGQGTLVTVSS VL: DIELTQPPSVSVAPGQTARISCSGDNLGSKYVHWYQQKPGQAPVLVIYADNNRPSGIPERFSGSNSGNTATLTISGTQAEDEADYYCSSYDSNSIRVFGGGTKLTVLG
binds | MOR05021 Fab (Fab, V domains shown) VH: QVQLVESGGGLVQPGGSLRLSCAASGFTFSNHALSWVRQAPGKGLEWVSGIQYDGSNTGYADSVKGRFTISRDNSKNTLYLQMNSLRAEDTAVYYCARYYGYSYMDYWGQGTLVTVSS VL: DIELTQPPSVSVAPGQTARISCSGDNLGSKYVHWYQQKPGQAPVLVIYADNNRPSGIPERFSGSNSGNTATLTISGTQAEDEADYYCSSYDLDGVRVFGGGTKLTVLG
binds | MOR05022 Fab (Fab, V domains shown) VH: QVQLVESGGGLVQPGGSLRLSCAASGFTFSNHALSWVRQAPGKGLEWVSGIQYDGSNTGYADSVKGRFTISRDNSKNTLYLQMNSLRAEDTAVYYCARYYGYSYMDYWGQGTLVTVSS VL: DIELTQPPSVSVAPGQTARISCSGDNLGSKYVHWYQQKPGQAPVLVIYADNNRPSGIPERFSGSNSGNTATLTISGTQAEDEADYYCSSYTTSGIRVFGGGTKLTVLG
binds | MOR05013 Fab (Fab, V domains shown) VH: QVQLVESGGGLVQPGGSLRLSCAASGFTFSSYYMSWVRQAPGKGLEWVSGIFFDGETYYADSVKGRFTISRDNSKNTLYLQMNSLRAEDTAVYYCARQQYFDHIDIWGQGTLVTVSS VL: DIELTQPPSVSVAPGQTARISCGGDSLGGKYVYWYQQKPGQAPVLVIYGDSKRPSGIPERFSGSNSGNTATLTISGTQAEDEADYYCQSYTNALSTVFGGGTKLTVLG
binds | MOR05014 Fab (Fab, V domains shown) VH: QVQLVESGGGLVQPGGSLRLSCAASGFTFSSYYMSWVRQAPGKGLEWVSGIFFDGTTYYADSVKGRFTISRDNSKNTLYLQMNSLRAEDTAVYYCARQQYFDHIDIWGQGTLVTVSS VL: DIELTQPPSVSVAPGQTARISCGGDSLGGKYVYWYQQKPGQAPVLVIYGDSKRPSGIPERFSGSNSGNTATLTISGTQAEDEADYYCQSYTNALSTVFGGGTKLTVLG
binds | MOR05010 Fab (Fab, V domains shown) VH: QVQLVESGGGLVQPGGSLRLSCAASGFTFSSYYMSWVRQAPGKGLEWVSGIFFDGETYYAGSVKGRFTISRDNSKNTLYLQMNSLRAEDTAVYYCARQQYFDHIDIWGQGTLVTVSS VL: DIELTQPPSVSVAPGQTARISCGGDSLGGKYVYWYQQKPGQAPVLVIYGDSKRPSGIPERFSGSNSGNTATLTISGTQAEDEADYYCQSYTNALSTVFGGGTKLTVLG
binds | MOR05012 Fab (Fab, V domains shown) VH: QVQLVESGGGLVQPGGSLRLSCAASGFTFSSYYMSWVRQAPGKGLEWVSGIFFTGETYYPDSVKGRFTISRDNSKNTLYLQMNSLRAEDTAVYYCARQQYFDHIDIWGQGTLVTVSS VL: DIELTQPPSVSVAPGQTARISCGGDSLGGKYVYWYQQKPGQAPVLVIYGDSKRPSGIPERFSGSNSGNTATLTISGTQAEDEADYYCQSYTNALSTVFGGGTKLTVLG
binds | MOR05015 Fab (Fab, V domains shown) VH: QVQLVESGGGLVQPGGSLRLSCAASGFTFSSYYMSWVRQAPGKGLEWVSGTFFDGSTYYADSVKGRFTISRDNSKNTLYLQMNSLRAEDTAVYYCARQQYFDHIDIWGQGTLVTVSS VL: DIELTQPPSVSVAPGQTARISCGGDSLGGKYVYWYQQKPGQAPVLVIYGDSKRPSGIPERFSGSNSGNTATLTISGTQAEDEADYYCQSYTNALSTVFGGGTKLTVLG
binds | MOR05011 Fab (Fab, V domains shown) VH: QVQLVESGGGLVQPGGSLRLSCAASGFTFSSYYMSWVRQAPGKGLEWVSGIFYDGSTYYPDSVKGRFTISRDNSKNTLYLQMNSLRAEDTAVYYCARQQYFDHIDIWGQGTLVTVSS VL: DIELTQPPSVSVAPGQTARISCGGDSLGGKYVYWYQQKPGQAPVLVIYGDSKRPSGIPERFSGSNSGNTATLTISGTQAEDEADYYCQSYTNALSTVFGGGTKLTVLG
binds | MOR05008 Fab (Fab, V domains shown) VH: QVQLVQSGAEVKKPGSSVKVSCKASGGTFSSYAISWVRQAPGQGLEWMGGIIPEFGFTNYAQKFQGRVTITADESTSTAYMELSSLRSEDTAVYYCARSGMFYSILFDYWGQGTLVTVSS VL: DIQMTQSPSSLSASVGDRVTITCRASQDIYNYLNWYQQKPGKAPKLLIYGASSLQSGVPSRFSGSGSGTDFTLTISSLQPEDFAVYYCQQQNDYPLTFGQGTKVEIKR
binds | MOR05009 Fab (Fab, V domains shown) VH: QVQLVQSGAEVKKPGSSVKVSCKASGGTFSSYAISWVRQAPGQGLEWMGHISPEFGFTNYAQKFQGRVTITADESTSTAYMELSSLRSEDTAVYYCARSGMFYSILFDYWGQGTLVTVSS VL: DIQMTQSPSSLSASVGDRVTITCRASQDIYNYLNWYQQKPGKAPKLLIYGASSLQSGVPSRFSGSGSGTDFTLTISSLQPEDFAVYYCQQQNDYPLTFGQGTKVEIKR
binds | MOR05019 Fab (Fab, V domains shown, also called MOR5019) VH: QVQLVESGGGLVQPGGSLRLSCAASGFTFSNHALSWVRQAPGKGLEWVSVISFDGVKFYADSVKGRFTISRDNSKNTLYLQMNSLRAEDTAVYYCARYYGYSYMDYWGQGTLVTVSS VL: DIELTQPPSVSVAPGQTARISCSGDNLGSKYVHWYQQKPGQAPVLVIYADNNRPSGIPERFSGSNSGNTATLTISGTQAEDEADYYCQSYDHMLQVFGGGTKLTVLG
